Key:
[1] = biological target: recombinant NgAgo-His (Natronobacterium gregoryi); experiment: SPR
[2] = biological target: recombinant E. coli recA, His-tagged (E. coli) (UniProt P0A7G6); experiment: SPR

| Substance | Kd [1] | koff [1] | kon [1] | Kd [2] | koff [2] | kon [2] |
| --- | --- | --- | --- | --- | --- | --- |
| recombinant E. coli recA, His-tagged (from UniProt P0A7G6 1-353) (natural protein) | 42.4 nM | 0.00024 s⁻¹ | 5740 M⁻¹ s⁻¹ | – | – | – |
| recombinant NgAgo-His (natural protein) | – | – | – | 30.6 nM | 0.000707 s⁻¹ | 23200 M⁻¹ s⁻¹ |

Source: paper PMC6468240
